Assay [1] relates to murine uterine epithelial cells. The assay can be described thus: Effect of IFNγ on GM-CSF synthesis in murine uterine epithelial cells (Example 3). The assay is classed as cell-based, mouse. How it is done: Uterine Epithelial Cell Cultures. Uterine epithelial cells prepared by pancreatin-trypsin digest as previously described (Robertson et al., (1992) Biol. Reprod. 46:1069-1079) were pooled from 4-6 estrous adult C57B1/6×CBA F1 female mice and plated in 1 ml culture wells (Nunc, Roskilde, Germany) at 1-2×10^5 cells per ml in 500 μl of RPMI containing 10% FCS and streptomycin (RPMI-FCS). Penicillin was omitted from culture media except where specified. After 4 h incubation at 37° C. in 5% CO2 to allow cell adherence, a further 500 μl of cytokines or antibodies in RPMI-FCS, or RPMI-FCS alone, were added. Cytokine treatments included recombinant mouse interferon-γ (rmIFNγ; R&D Systems), recombinant human transforming growth factor β1 (rhTGFβ1, R&D Systems), rhTGFβ2 (R&D Systems), rhTGFβ3 (OSI Pharmaceuticals). Antibody treatments included goat anti-mouse IFNγ receptor 1 (αIFNγR; R&D Systems AF1026) and hamster anti-mouse IFNγ (αIFNγ; R&D Systems MAB4851). Culture supernatants were collected and replaced with fresh complete RPMI-FCS alone at 16 hours, then collected again 24 hours later, at which time adherent cells were quantified as previously described (Robertson et al., (1992) Biol. Reprod. 46:1069-1079). The GM-CSF content of 24 h supernatants was determined by GM-CSF bioassay or immunoassay. All treatments were performed in duplicate or triplicate.
GM-CSF bioassay and immunoassay: Bioactive GM-CSF was assayed using the GM-CSF dependant cell line FD 5/12, essentially as previously described (Robertson et al., (1992) Biol. Reprod. 46:1069-1079). Cell proliferation was determined by the addition of 1 μCi of [^3H]-thymidine per well for the last 6 h of the assay. […] GM-CSF immunoactivity was in some experiments measured by commercial mouse GM-CSF specific ELISA (R & D Systems) according to the manufacturer's instructions.

The test system is the same in assay [2]. The experiment in a line: Effect of rIFNγ and rTGFβ on GM-CSF production in cultured uterine epithelial cells (Example 2). It is filed as cell-based, mouse. How it is done:
Uterine Epithelial Cell Cultures. Uterine epithelial cells prepared as previously described (Robertson et al., Biol Reprod 46:1069-1079 (1992)) were pooled from 4-6 estrous C57B1/6 or C57B1/6×Balb/c F1 mice and plated in 1 ml culture wells (Nunc, Roskilde, Germany) at 1-2×10^5 cells per ml in 500 μl of Dulbecco's modified Eagles medium containing 10% FCS, […] streptomycin sulphate and […] benzyl penicillin (DMEM +penicillin). After 4 h incubation at 37° C. in 5% CO2 to allow cell adherence, a further 500 μl of DMEM +penicillin, or DMEM +penicillin plus recombinant mouse IFNγ (rIFNγ) and/or recombinant human TGFβ1 (rTGFβ), were added. In some experiments, penicillin-free DMEM (DMEM −penicillin) was used throughout. Culture supernatants were collected and replaced with fresh medium at 16 hours, then collected again 24 hours later, at which time GM-CSF content was determined and adherent cells were quantified as previously described (Robertson et al., Biol Reprod 46:1069-1079 (1992)). All treatments were performed in duplicate or triplicate. rTGFβ and rIFNγ were obtained from R&D Systems, UK.
GM-CSF bioassay: GM-CSF was assayed using the GM-CSF dependant cell line FD 5/12, essentially as previously described (Robertson et al., Biol Reprod 46:1069-1079 (1992)). Cell proliferation was determined by pulsing with 1 μCi of [^3H]-thymidine per well for the last 6 h of the assay. The minimal detectable amount of GM-CSF was 20 pg/ml. The identity of the bioactivity in uterine epithelial cell cultures was confirmed using a goat polyclonal antibody to murine GM-CSF (DNAX, Palo Alto, Calif.) as previously described (Robertson et al., Biol Reprod 46:1069-1079 (1992)). GM-CSF production is expressed as ng GM-CSF/10^5 cells/24 h. Recombinant mouse GM-CSF was obtained from R&D Systems.

For assay [3], the system named is uterine luminal fluid content of GM-CSF. The assay can be described thus: Effect of IFN-γ treatment on GM-CSF content of uterine luminal fluids in mice (Example 7). The assay is classed as in vivo. As to conditions: 5 ng or 20 ng transcervical on day 1 of pregnancy; fluids 7 hrs later; p=0.03 versus PBS control, treatment groups combined. How it is done: Mice were housed under specific pathogen-free conditions at the University of Adelaide Medical School Animal House on a 12:12 light-dark cycle, and were administered food and water ad libitum. Adult C57B1/6×CBA F1 females (7-10 weeks old) were caged with proven fertile Balb/c males for natural mating. The day of sighting a vaginal plug was nominated day 1 of pregnancy. Mice were randomly allocated to one of three groups and administered transcervical treatments of either 5 ng or 20 ng recombinant mouse IFN-γ (rmIFN-γ; R&D Systems) in 30 μl PBS containing 0.1% bovine serum albumin (PBS-BSA), or PBS-BSA alone (PBS control), at 0900 h on day 1. Treatments were delivered directly into the uterine lumen with the aid of a tom-cat catheter (Sovereign, St Louis Mo.), after removal of vaginal plugs using forceps to allow transcervical access. Mice were sacrificed 7 hrs later at 1600 h on day 1, and uterine luminal fluids were flushed in 1 ml PBS-BSA with a syringe and 26 gauge needle.
GM-CSF immunoactivity in uterine luminal fluids was measured by commercial mouse GM-CSF specific ELISA (R & D Systems) according to the manufacturer's instructions. Data are given as GM-CSF content in pg/ml uterine luminal fluid.

Some results are limits rather than exact numbers.

B1: rIFNγ: recombinant mouse IFNγ (R&D Systems) (protein, UniProt P01580 23-155, looked up)
Interferon gamma: HGTVIESLESLNNYFNSSGIDVEEKSLFLDIWRNWQKDGDMKILQSQIISFYLRLFEVLKDNQAISNNISVIESHLITTFFSNSKAKKDAFMSIAKFEVNNPQVQRQAFNELIRVVHQLLPESSLRKRKRSRC
As for B1, the “IFNγ concentration giving significant inhibition (GM-CSF synthesis <50% of control values)” value in assay [1] is more than 150 pg/mL. Moreover, the “IFNγ concentration inhibiting GM-CSF synthesis (<50% of control values)” value in assay [1] (absence of penicillin) is not below 9.8 pg/mL. For the same molecule, the “IFNγ concentration at which inhibition of GM-CSF synthesis was evident” value in assay [1] (more than six experiments, penicillin omitted) is not below 40 pg/mL. Moreover, in assay [2] (DMEM +penicillin), the “rIFNγ concentrations at which an inhibitory effect was not seen” value is “less than 150 pg/ml”. Moreover, in assay [2] (DMEM +penicillin, dose-dependent decrease in each of three experiments), the “rIFN-γ concentration eliciting maximal decrease in GM-CSF production” value was not below 2.5 ng/mL. The “rIFNγ concentration giving maximal decrease in GM-CSF production” value in assay [2] (DMEM -penicillin, three experiments) was not below 2.5 ng/mL. For the same molecule, the “rIFNγ concentration at which inhibitory effect was still observed” value in assay [2] (absence of penicillin) is 2 pg/mL. In addition, the “lowest effective concentration of rIFNγ” value in assay [2] (in the presence of 0.5 ng/ml rTGFβ) was found to be 39 pg/mL. For the same molecule, the “lowest effective inhibitory concentration of rIFNγ” value in assay [2] (in the presence of 5 ng/ml of rTGFβ) is 2.5 ng/mL. The “rIFNγ concentration with maximal inhibition of rTGFβ induction of GM-CSF synthesis” value in assay [2] (rTGFβ-stimulated cells, DMEM +penicillin) is not below 2.5 ng/mL. Moreover, the “effect on uterine luminal fluid content of GM-CSF” value in assay [3] is “reduce uterine luminal fluid content of GM-CSF”.
